Numbering of substitutions follows the chain as printed.
B1: B32 (chimeric antibody) (antibody, human IgG1, kappa, V domains shown)
VH: EVKLMESGGGLVKPGGSLKLSCAASGFAFSSYAMSWVRQTPDKRLEWVASINRDVTTYYPDSMKGRFTISRDNARNILYLQMSSLRSEDTAMYYCARGYYYGGGPYWHFDVWGAGTTVTVSS
VL: DIQITQSPSSMYASLGERVTITCKASQDINSYLTWFQQKPGKSPKTLIYRANRLVDGVPSRFSGSGSGQDYSLTISSLEYEDMGIYYCLQFDEFPYTFGGGTKLEIKR
notes: ExpiCHO expression
B2: M71 (chimeric antibody) (antibody, human IgG1, kappa, V domains shown)
VH: EVMLVESGGGLVKPGGSLKLSCAASGFTFSRYAMSWVRQTPEKRLEWVASINRGGTTYYPDSVKGRFTISRDNARDILYLQMSSLRSEDTAIYYCARDYYYGSSLYNGMDFWGQGTSVIVSS
VL: B1 VL with I4M, T34S, Y80S
notes: ExpiCHO expression
B3: B39 (chimeric antibody) (antibody, human IgG1, kappa, V domains shown)
VH: EVKLVESGGGLVKPGGSLKLSCAASGFTFSTYAMSWVRQTPEKRLEWVASISTGASTYYPDSVKGRFTISRDNARNILYLQMSSLRSEDTAMYYCAREETTTAALYYAMDYWGQGTSVTVSS
VL: B1 VL with Q3K, S31N, T34S
notes: ExpiCHO expression
B4: B74 (chimeric antibody) (antibody, human IgG1, kappa, V domains shown)
VH: EVMLVESGGNLVKPGGSLKLSCAASGFTFSIYAMSWVRQTPEKRLEWVASISGGGTAYYPDSVKGRFTISRDNARNILYLQMSSLRSEDTAIYYCARGYYYGGSPYWHFDVWGAGTTVTVSS
VL: B1 VL with Q3K, I4M, T34S, M83I, F91I
notes: ExpiCHO expression
B5: C77 (chimeric antibody) (antibody, human IgG1, kappa, V domains shown)
VH: EVKLVESGGGLVKPGGSLKLSCAASGFSFSNYAMSWVRQTPEKRLEWVASINSGVTTYYPDSVKGRFTVSRDNARNILYLHMTGLRSEDTAIYYCSRGYYYGGSPYWHFDVWGAGTTVTVSS
VL: B1 VL with I4M, Y12H, S31N, L33V, T34S, L73F
notes: ExpiCHO expression
B6: C38 (chimeric antibody) (antibody, human IgG1, kappa, V domains shown)
VH: B2 VH with K13R, R31S, E42D, G54D, G55V, D76N, I92M, N107Y, F111Y, I119T
VL: B1 VL with I4M, Y12H, S31N, L33V, T34S, L73F
notes: ExpiCHO expression
B7: B34 (chimeric antibody) (antibody, human IgG1, kappa, V domains shown)
VH: EVQLVESGGGLVQPKGSLKLSCAASGFTFSRYAMSWVRQTPEKRLEWVASISTGGSPYYPDSVKGRFTISRDNARNILYLQMSSLKSEDTAMYYCARGYYYNSSPHWYFAVWGAGTSVTVSS
VL: B1 VL with I4M, M11L, Y12S, T34S, F91Y
notes: ExpiCHO expression
B8: M78 (chimeric antibody) (antibody, human IgG1, kappa, V domains shown)
VH: B2 VH with K13R, R31S, T40S, S104N, F111Y
VL: B1 VL with Q3K, T34S
notes: ExpiCHO expression
B9: C42 (chimeric antibody) (antibody, human IgG1, kappa, V domains shown)
VH: EVMLVESGGGLVKPGGSLKLSCAASGFTFSNYIMSWVRQTPEKRLEWVATINSGGTNTYYPDSVKGRFTISRDNAKNSLYLQMNSLRSEDTALYYCTRYNGNYVWFAYWGQGTLVTVSA
VL: DIVLTQSPAIMSASPGEKVTMTCSASSSVSFIYWYQQKPGSSPRLLIYDTSNLASGVPVRFSGSGSGTSYSLTISRMEAEDAATYYCQQWSNYHFTFGSGTKLEIKR
notes: ExpiCHO expression
B10: B62-H2L3 (antibody, human IgG1, kappa)
heavy: not shown
light: DIQMTQSPSSLSASVGDRVTITCVTSIDIDDDVNWYQQKPGKAPKLLISAGNTLRPGVPSRFSGSGSGTDFTFTISSLQPEDIATYYCLQSDNLPYTFGGGTKLEIKRTVAAPSVFIFPPSDEQLKSGTASVVCLLNNFYPREAKVQWKVDNALQSGNSQESVTEQDSKDSTYSLSSTLTLSKADYEKHKVYACEVTHQGLSSPVTKSFNRGEC

target: T1, human ROR1 on cells (full-length human ROR1 on huROR1-HEK293 cells; human ROR1 on A549 and HT-29 tumor cells) (human, UniProt Q01973 30-937); experiment: flow cytometry (FACS) on A549 tumor cells, anti-human IgG-Fc secondary antibody, MFI
T1 construct: whole, on cells; also called hROR1-HEK293T; A549 tumor cells
Experimental: (§1) In this example, the binding activity of the antibody was evaluated using two types of cells, huROR1-HEK293 cells over-expressing human ROR1 and A549 tumor cells.
(§2) The specific method was as follows: huROR1-HEK293 cells or A549 cells in the logarithmic growth phase were prepared to a single-cell suspension, the density was adjusted to 1×10⁶ cells/mL, then 100 μL/well cells were added to a 96-well round-bottom plate, centrifuged at 4° C., 300 g, and the supernatant was removed. […] After the incubation, the cell mixture was washed three times and then 100 μL of 1:300 diluted secondary antibody Goat F(ab′)₂ Anti-Human IgG-Fc (abcam, ab98596) was added. The mixture was incubated at 4° C. in the dark for 30 min. After washing three times, the cells were detected by flow cytometry (Beckman, CytoFLEX AOO-1-1102).

T1 sequence (Q01973 30-937): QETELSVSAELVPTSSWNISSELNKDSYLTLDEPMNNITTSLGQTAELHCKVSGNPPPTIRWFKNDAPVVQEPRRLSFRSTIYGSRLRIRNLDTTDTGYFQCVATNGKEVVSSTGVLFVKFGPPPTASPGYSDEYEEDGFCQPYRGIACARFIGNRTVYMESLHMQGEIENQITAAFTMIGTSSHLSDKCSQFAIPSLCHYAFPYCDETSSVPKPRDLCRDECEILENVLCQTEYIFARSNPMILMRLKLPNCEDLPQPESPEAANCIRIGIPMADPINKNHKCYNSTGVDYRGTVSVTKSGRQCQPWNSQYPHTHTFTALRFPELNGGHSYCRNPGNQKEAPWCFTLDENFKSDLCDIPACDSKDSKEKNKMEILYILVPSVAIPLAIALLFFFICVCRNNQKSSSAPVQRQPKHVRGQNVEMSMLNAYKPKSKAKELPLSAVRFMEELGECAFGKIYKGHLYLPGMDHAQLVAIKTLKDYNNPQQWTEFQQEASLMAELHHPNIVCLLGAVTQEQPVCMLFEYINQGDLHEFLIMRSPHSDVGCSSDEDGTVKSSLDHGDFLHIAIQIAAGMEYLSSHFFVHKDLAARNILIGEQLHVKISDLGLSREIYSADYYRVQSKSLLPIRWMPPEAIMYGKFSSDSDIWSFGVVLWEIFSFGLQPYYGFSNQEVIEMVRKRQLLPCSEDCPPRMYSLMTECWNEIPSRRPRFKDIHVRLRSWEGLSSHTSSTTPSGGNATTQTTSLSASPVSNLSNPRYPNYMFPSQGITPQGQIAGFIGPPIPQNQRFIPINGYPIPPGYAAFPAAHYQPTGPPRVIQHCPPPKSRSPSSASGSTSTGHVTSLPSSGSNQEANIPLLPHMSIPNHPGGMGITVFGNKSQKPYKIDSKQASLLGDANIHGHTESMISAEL

| Binder | EC50 (read off the curve) [µg/mL] |
| --- | --- |
| B1 | ~0.02 |
| B2 | ~0.01 |
| B3 | ~0.01 |
| B4 | ~0.01 |
| B5 | ~0.02 |
| B6 | ~0.02 |
| B7 | ~0.04 |
| B8 | ~0.02 |
| B9 | ~0.03 |

target: T2, huROR1-His (human ROR1 ECD AA30-406 with C-terminal His tag, made in house) (human, UniProt Q01973 30-406); experiment: Gator (BLI) Advanced Kinetics; antibody 30 nM, huROR1-His 480-7.5 nM
T2 construct: range 30-406; Expressed in HEK293; also called antigen protein huROR1-His; not shown: C-terminal His tag
Experimental: First, Q buffer was prepared with PBS (10 mM pH7.4) (IgG-free, purchased from Jackson ImmunoResearch Lab)+0.02% Tween 20 (purchased from thermo)+0.2% BSA (purchased from source culture), and the stock solution of the test antibody was diluted with the prepared Q buffer to a working solution with a final concentration of 30 nM, the stock solution of the antigen protein huROR1-His was prepared with Q buffer into a working solution with multiple dilutions (480, 240, 120, 60, 30, 15, 7.5 nM), and detection and analysis was then performed with Gator instrument and its accompanying software, selecting the Advanced Kinetics experimental mode is used.

T2 sequence (Q01973 30-406 limits assumed): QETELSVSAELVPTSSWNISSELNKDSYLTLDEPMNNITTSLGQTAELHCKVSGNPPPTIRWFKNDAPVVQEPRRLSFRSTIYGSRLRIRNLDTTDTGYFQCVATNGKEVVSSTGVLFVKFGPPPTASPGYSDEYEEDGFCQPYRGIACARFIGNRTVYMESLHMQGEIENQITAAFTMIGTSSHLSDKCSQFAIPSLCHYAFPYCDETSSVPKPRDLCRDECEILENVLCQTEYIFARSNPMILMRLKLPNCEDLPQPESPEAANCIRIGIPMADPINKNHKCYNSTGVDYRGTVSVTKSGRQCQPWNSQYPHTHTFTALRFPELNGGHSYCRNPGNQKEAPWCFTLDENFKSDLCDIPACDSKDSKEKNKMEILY

| Binder | Kd [nM] | koff [s⁻¹] | kon [M⁻¹ s⁻¹] |
| --- | --- | --- | --- |
| B1 | 1.25 | 0.000377 | 301000 |
| B2 | 1.54 | 0.00054 | 351000 |
| B3 | 4.43 | 0.00135 | 304000 |
| B4 | 1.44 | 0.000464 | 323000 |
| B5 | 2.47 | 0.000774 | 314000 |
| B6 | 1.34 | 0.000422 | 314000 |
| B7 | 2.52 | 0.000609 | 241000 |
| B8 | 1.86 | 0.000614 | 330000 |
| B9 | 29.6 | 0.00325 | 110000 |

target: T2, huROR1-His (human ROR1 ECD AA30-406 …); experiment: ELISA, huROR1-His coated plate, goat anti-human Fc-HRP, OD450

| Binder | EC50 [µg/mL] |
| --- | --- |
| B10 | 0.0063 |

target: T1, human ROR1 on cells (full-length human …); experiment: flow cytometry (FACS) on huROR1-HEK293 cells, anti-human IgG-Fc secondary antibody, MFI
Experimental: as §1, §2

| Binder | EC50 (read off the curve) [µg/mL] |
| --- | --- |
| B1 | ~0.1 |
| B2 | ~0.08 |
| B3 | ~0.1 |
| B4 | ~0.2 |
| B5 | ~0.1 |
| B6 | ~0.1 |
| B7 | ~0.2 |
| B8 | ~0.1 |
| B9 | ~0.2 |

target: T2, huROR1-His (human ROR1 ECD AA30-406 …); experiment: ELISA, huROR1-His coated at 2 µg/mL, goat anti-human Fc-HRP, OD450
Experimental: (§3) 96-well ELISA plate was coated with 2 μg/mL huROR1-His (30 μL/well) at 4° C. overnight. The next day, the plate was washed three times with PBST and then blocked with 5% skim milk for 2 h. […] After washing with PBST for three times, the secondary antibody Goat-anti-human Fc-HRP (abcam, ab97225) was added and incubated for 1 h. After incubation, the plate was washed with PBST for 6 times and TMB (SurModics, TMBS-1000-01) was added for color development. According to the color development results, 2 M HCl was added to terminate the reaction, and the data were read at OD450 using a microplate reader (Molecular Devices, SpecterMax 190).

| Binder | EC50 [µg/mL] |
| --- | --- |
| B1 | 0.00575 |
| B2 | 0.0077 |
| B3 | 0.00552 |
| B4 | 0.00513 |
| B5 | 0.00603 |
| B6 | 0.00371 |
| B7 | 0.00628 |
| B8 | 0.00212 |
| B9 | 0.00203 |

target: T3, MusROR1-His (mouse ROR1 ECD AA30-406 with C-terminal His tag) (mouse, UniProt Q9Z139 30-406); experiment: ELISA, MusROR1-His coated at 2 µg/mL, goat anti-human Fc-HRP, OD450
T3 construct: range 30-406; Expressed in HEK293; also called mouse ROR1 antigen protein; not shown: C-terminal His tag
Experimental: as §3, with “MusROR1-His” for “huROR1-His”

T3 sequence (Q9Z139 30-406 limits assumed): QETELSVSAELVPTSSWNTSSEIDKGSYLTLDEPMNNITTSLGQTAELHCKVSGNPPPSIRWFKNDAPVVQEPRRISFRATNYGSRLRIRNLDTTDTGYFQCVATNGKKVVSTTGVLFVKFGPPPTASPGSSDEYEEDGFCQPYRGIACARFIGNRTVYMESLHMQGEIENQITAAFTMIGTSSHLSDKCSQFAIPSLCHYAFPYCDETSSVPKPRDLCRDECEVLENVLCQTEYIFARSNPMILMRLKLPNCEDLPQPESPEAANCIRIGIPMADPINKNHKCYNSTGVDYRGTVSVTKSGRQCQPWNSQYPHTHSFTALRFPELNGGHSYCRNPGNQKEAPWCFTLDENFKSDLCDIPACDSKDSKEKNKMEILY

| Binder | EC50 (read off the curve) [µg/mL] | binding result |
| --- | --- | --- |
| B1 | ~0.04 |  |
| B2 |  | no binding (tested: 1 µg/mL) |
| B3 |  | no binding (tested: 1 µg/mL) |
| B4 |  | no binding (tested: 1 µg/mL) |
| B5 |  | no binding (tested: 1 µg/mL) |
| B6 | ~0.03 |  |
| B7 |  | no binding (tested: 1 µg/mL) |
| B8 |  | no binding (tested: 1 µg/mL) |
| B9 |  | binds |

target: T4, huROR2-His (human ROR2 ECD AA34-403 with C-terminal His tag) (human, UniProt Q01974 34-403); experiment: ELISA, huROR2-His coated at 2 µg/mL, goat anti-human Fc-HRP, OD450
T4 construct: range 34-403; Expressed in HEK293; also called human ROR2 antigen protein; not shown: C-terminal His tag
Experimental: as §3, with “huROR2-His” for “huROR1-His”, “TMBS-1000-0)” for “TMBS-1000-01)”

T4 sequence (Q01974 34-403 limits assumed): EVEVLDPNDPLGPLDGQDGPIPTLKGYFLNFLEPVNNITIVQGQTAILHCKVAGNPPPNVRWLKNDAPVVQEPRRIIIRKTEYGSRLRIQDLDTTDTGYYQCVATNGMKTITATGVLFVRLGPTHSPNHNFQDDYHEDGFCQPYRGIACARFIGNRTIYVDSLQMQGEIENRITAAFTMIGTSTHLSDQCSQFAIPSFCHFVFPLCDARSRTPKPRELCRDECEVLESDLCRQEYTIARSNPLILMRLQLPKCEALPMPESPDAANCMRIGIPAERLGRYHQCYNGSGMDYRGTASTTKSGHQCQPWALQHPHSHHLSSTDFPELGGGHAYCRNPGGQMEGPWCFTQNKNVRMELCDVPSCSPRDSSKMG

| Binder | binding result |
| --- | --- |
| B1 | no binding (tested: 1 µg/mL) |
| B2 | no binding (tested: 1 µg/mL) |
| B3 | no binding (tested: 1 µg/mL) |
| B4 | no binding (tested: 1 µg/mL) |
| B5 | no binding (tested: 1 µg/mL) |
| B6 | no binding (tested: 1 µg/mL) |
| B7 | no binding (tested: 1 µg/mL) |
| B8 | no binding (tested: 1 µg/mL) |
| B9 | no binding (tested: 1 µg/mL) |
